In the domain aggregation screens of Martell et al. (2025):

Test: soluble fraction after stress (log2 fold change); higher = more stays soluble; pooled small domains, quantitative proteomics
Conditions: stress: pH 4
In short: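 Pooled custom libraries of small protein domains were stressed at pH 4 and then measured by high-throughput quantitative proteomics. The fold change in the amount of each domain that stays soluble after the acid stress serves as a measure of aggregation propensity. Fold changes are given on a log2 scale, and higher values mean more of the domain stayed soluble.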

## HMEDINAVLAENLRRLRESRRLSLDAVARLTGVSKSMLGQIERGEVNPTVSTMWKIAGGLKVNFTALFRRE
  soluble fraction (log2): ≥ 0.43

## HMPIKYTHKGYTINVSRSKMNGTTFVKVVDPKGQVIQQSQDNRIQDVNQLVTTMKQYIDTLKPS
  soluble fraction (log2): -0.0336

## HMLQPQMKKFLNYESARNKMRPFGLSTRKEWRLFVDEGNRPADIPGDPYKKYKNKGWISWPHFLGK
  soluble fraction (log2): 0.0515

## HMQYSIQVNKLLKAMREDVWYTANEILDLLKLKSKETLRKNYLDPAINNKLIILELPDKPTSRNQRYKI
  soluble fraction (log2): -0.289

## HMKKEDFLEILRDYLKKGFSEDEVMDILRDYEEYFVDGIIEGKSEIEIIQSLGSPKEIANELLAES
  soluble fraction (log2): -0.754

## HMKTMSLSSIEKAIYKTKYENEPTSQRLSRIESSVFGTNFSQDSESERIARISSAINAQKSAK
  soluble fraction (log2): 0.22

## HMTNTWNNIVERNDLFFKKFTNTPFNGKIETYWPNGNLKETGIITDGKKDNLWEYYYENGNPKEVEF
  soluble fraction (log2): -0.0781

## HMYAHLGKNLEVVINKALAQEDPEKKAGFAHHIAYYMKLAYSNWHKELVHDDAIRSELDTITGGELEFSN
  soluble fraction (log2): -0.0696

## HMFMSKTAMVAIISEADKYGLFNIPEGLSVEKTADEIFEGHIEVDFDKLKNELDFVYKNEALEKQFQEN
  soluble fraction (log2): -1

## HMNKETYIDALERKLWDRLDPDQLRDIISYYKDYFAMEAAKGISEEETIRKLGDPALLAKSILAAE
  soluble fraction (log2): -0.145

## HMSKMVEMSQEKSREKVARVKIEIQKMLDRKERVTVSGLERATGFSNSFFYRNEEVNQAVKEAQLKQ
  soluble fraction (log2): 0.0693

## HMEVGVSGTVFNTDSLNVRKGPGTNFDTVTSLKRGSVVEVFEQSAVDGTVWGRIANGWVNMQYVSL
  soluble fraction (log2): -0.0681

## HMEFSYMDQGLERYRAFLETHGHGNVPESYHELKLVNFVAHIRKLYRMNLLSEERRRALDEAGFVF
  soluble fraction (log2): -1.24

## HMRNMVSVLDHIEGIGPKRRQLLYEHYGELEKIKEASVEEMAGLDGMNRPAAEAVYNFFLAQRNL
  soluble fraction (log2): -0.308

## HMTMLLEYNVSRSSKWMNKTIMDAEIPDDILIVMIKRNGQVIVPKGSTEILENDILVLSGNNLNEVALG
  soluble fraction (log2): -1.46

## HMIENITIELNKKALALDFELNKDLPEGVLETIPTLVSLMVRFDPLTVSYHFLRDYIDALLESNLNVDL
  soluble fraction (log2): -0.56

## HMKLTALWTANPKISAPIYSEPSTQSKTLGRIYQGASVKVYSFDPEWAYINSSGVVGYVLRRHLE
  soluble fraction (log2): 0.326

## HMELDIGKKAIVIEKIDPEAGTGRVRIEGVDWGAKTADSSVIEKGETVVVKAKGAAFVTVAK
  soluble fraction (log2): 0.0671

## HMTMQTAEQESRLEQKLIDLSVGIDRFEGYSRPHGQLIASIADRIGTRLGMAAHDRFYMQQAAL
  soluble fraction (log2): -0.0547

## HMQVPFGFQRNPSTGTLEEKAEEQLIINQVLSLKNSGIGVSEISKRLGELSVSRIYRIINTAKKNAS
  soluble fraction (log2): -0.107

## HMRRSKQERQQAIKTLISNEQIQRQEDLVRKLNEAGWEVTQATISRDITEMQLVKVPLPTGGFAYAVM
  soluble fraction (log2): -0.31

## HMATPRLAIVPQSAAGRRLDAVLAELFPEYSRSRLSAWIKTGDVMVDGAAPRGRDPVRGGEEITLTAVQ
  soluble fraction (log2): 0.113

## HMQPAGEGAILRYLSSGAVKGIGPVMAREIVRRFGTDTFRVMEQEPEKLLKVKGITEQRLQTIMESYQD
  soluble fraction (log2): 0.145

## HMSGEVLTAVVPETASGERLDKVLPQIFPPYSRSQLQTWLKEGRVTLDREIPAARLAVIGGETLRLEVPSL
  soluble fraction (log2): -0.0494

## HMRTMFGQRLRLARKRAGLSMQALADRVTPSVSAQAISKYEADQMMPSSSVLVGLGKALGVSLDFLVGGQ
  soluble fraction (log2): -0.238

## HMRRELDSEHKRQEILFAAKRLLLAEGYDATSMSRLAKEAGVAPNTLYWYFKDKDELLIAILDELVAE
  soluble fraction (log2): -1.09

## HMHPMVEAYLADLDRALSGSDPREHAETMSAVREHLADAIAPDATAEQVRHALDELGPVEAIAAG
  soluble fraction (log2): -0.239

## HMKIVPEPGTVLIREYQEERHEVTVTLDGAFDYKGTLYSSLSEIARLITGTRWSGPVFFGLRS
  soluble fraction (log2): -0.353

## HMNKEVDLPNFVGMTKENAQAQADKIKIKLEFEEEYSSDVEEGKIISQNPEYKENYKIKEKSTVSLKI
  soluble fraction (log2): 0.0516

## HMSDDVELLGRLSDREVSVLQYLSQGYSNKQISEQMFISNKTVSTYKARLLLKLNAGSLVDLIEFAKRNTL
  soluble fraction (log2): -0.961
